The assay deals with T1, Sirt2 (mouse, UniProt Q8VDQ8 2-389, limits assumed).
T1 construct: Endogenous protein immunoprecipitated from T cell lysates with anti-Sirt2 (Sigma #9441); also called Sirtuin 2
T1 sequence (looked up): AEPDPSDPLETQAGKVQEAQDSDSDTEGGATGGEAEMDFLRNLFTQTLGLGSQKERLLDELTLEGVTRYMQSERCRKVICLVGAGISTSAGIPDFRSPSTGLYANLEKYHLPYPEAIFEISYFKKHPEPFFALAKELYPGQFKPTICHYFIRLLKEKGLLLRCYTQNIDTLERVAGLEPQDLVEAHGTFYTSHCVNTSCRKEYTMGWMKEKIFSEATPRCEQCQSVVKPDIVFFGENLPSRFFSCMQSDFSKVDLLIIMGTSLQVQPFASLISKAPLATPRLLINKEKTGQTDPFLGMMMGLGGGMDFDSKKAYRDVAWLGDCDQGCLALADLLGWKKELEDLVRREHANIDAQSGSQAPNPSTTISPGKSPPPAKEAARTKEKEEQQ
Kind of assay: co-IP/immunoblot and reverse co-IP/immunoblot, activated WT mouse CD3+ T cell extracts.

B1: succinate-CoA ligase alpha subunit (SUCLG1) (enzyme)
chain: not shown
notes: also called succinyl-CoA ligase alpha subunit; Succinyl-CoA Ligase
B1: the binding result is given as “binds”.

B2: aldolase A (ALDOA) (enzyme, mouse, UniProt P05064 2-364, looked up)
chain: PHPYPALTPEQKKELSDIAHRIVAPGKGILAADESTGSIAKRLQSIGTENTEENRRFYRQLLLTADDRVNPCIGGVILFHETLYQKADDGRPFPQVIKSKGGVVGIKVDKGVVPLAGTNGETTTQGLDGLSERCAQYKKDGADFAKWRCVLKIGEHTPSALAIMENANVLARYASICQQNGIVPIVEPEILPDGDHDLKRCQYVTEKVLAAVYKALSDHHVYLEGTLLKPNMVTPGHACTQKFSNEEIAMATVTALRRTVPPAVTGVTFLSGGQSEEEASINLNAINKCPLLKPWALTFSYGRALQASALKAWGGKKENLKAAQEEYIKRALANSLACQGKYTPSGQSGAAASESLFISNHAY
notes: also called Aldolase 1
On to B2, for which the binding result is reported as “binds”.

For the origin of these results see US20220017863A1 (H LEE MOFFITT CANCER CENTER AND RESEARCH INSTITUTE, published 2022).
